For this assay, the target named is ICAM-1 (COS cell transfectants) (UniProt P05362). In words: FACS of COS transfectants, one transfection out of at least five attempts.
Chain of UniProt P05362 (P05362 28-532 limits assumed): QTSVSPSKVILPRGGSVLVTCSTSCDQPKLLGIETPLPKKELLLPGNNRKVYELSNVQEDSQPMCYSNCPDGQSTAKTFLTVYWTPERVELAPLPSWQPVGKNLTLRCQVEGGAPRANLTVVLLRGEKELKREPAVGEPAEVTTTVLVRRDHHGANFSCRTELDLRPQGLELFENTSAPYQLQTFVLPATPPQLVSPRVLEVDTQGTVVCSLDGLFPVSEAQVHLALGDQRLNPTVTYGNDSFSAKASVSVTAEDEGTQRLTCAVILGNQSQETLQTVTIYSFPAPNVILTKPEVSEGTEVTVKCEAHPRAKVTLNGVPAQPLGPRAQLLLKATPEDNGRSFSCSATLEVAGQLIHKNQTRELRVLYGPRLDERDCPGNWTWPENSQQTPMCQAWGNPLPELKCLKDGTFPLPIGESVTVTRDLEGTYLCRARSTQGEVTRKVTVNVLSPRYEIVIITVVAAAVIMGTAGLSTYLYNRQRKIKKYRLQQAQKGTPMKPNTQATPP

With “Fc-CD33Rg (from UniProt P20138 18-259) (Fc fusion)”, the % binding was found to be 36%.

The record behind these values is patent US20130280735A1.
